Assay results published in patent publication US20250295734A1, “ANTICOAGULANT PROTEINS AND THEIR USE FOR TREATING DISEASES ASSOCIATED WITH THE ACTIVATION OF NEUTROPHILS” (BIOXODES, priority 2018, published 2025).
Entries after “also recorded” stand apart in the source; their conditions may differ.

What was measured:
[1] = target: T1, FXIIa (Homo sapiens, UniProt P00748); settings: aPTT-based test, FXII deficient plasma; cited from earlier work
T1 construct: The resulting α-FXIIa has a heavy chain of 50 kDa, connected to a light chain of 28 kDa
T1 sequence (P00748 20-372 limits assumed): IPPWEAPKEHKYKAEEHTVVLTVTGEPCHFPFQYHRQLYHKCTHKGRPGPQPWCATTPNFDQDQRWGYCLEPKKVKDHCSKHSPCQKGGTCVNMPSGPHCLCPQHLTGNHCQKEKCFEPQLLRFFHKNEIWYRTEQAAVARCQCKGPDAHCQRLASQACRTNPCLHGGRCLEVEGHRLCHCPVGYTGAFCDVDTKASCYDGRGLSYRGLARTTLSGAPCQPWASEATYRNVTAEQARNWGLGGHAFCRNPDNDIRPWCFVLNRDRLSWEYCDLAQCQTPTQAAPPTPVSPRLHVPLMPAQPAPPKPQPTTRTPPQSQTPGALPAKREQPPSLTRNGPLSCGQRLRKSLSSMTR
T1 sequence (P00748 373-615 limits assumed): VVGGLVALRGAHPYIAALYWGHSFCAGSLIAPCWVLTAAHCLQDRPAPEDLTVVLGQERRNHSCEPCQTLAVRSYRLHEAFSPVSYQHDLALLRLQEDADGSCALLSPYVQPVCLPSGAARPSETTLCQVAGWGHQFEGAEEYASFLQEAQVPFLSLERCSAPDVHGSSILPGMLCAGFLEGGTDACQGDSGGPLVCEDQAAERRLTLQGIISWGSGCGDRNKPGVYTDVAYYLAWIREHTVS

[2] = target: FXI (Homo sapiens, UniProt P03951); settings: cited from earlier work
[3] = system: neutrophils isolated from the bone marrow of femurs of mice; experiment: In vitro NETosis assay; assay type: cell-based, mice (C57BL/6); settings: PMNs primed with TNFα, activated with PAF
Description: Neutrophils were isolated from the bone marrow of femurs of mice (C57BL/6) as previously described (Hu 2012) using FR-1-coupled magnetic beads (anti-Ly6G Microbead Kit, Miltenyi Biotec).
Cells were harvested, centrifugated and incubated during 30 min with or without 2 ng/ml of TNFα in Hanks solution (Gibco). Neutrophils were seeded on slides coated with poly-L-lysine and incubated at 37° C. for 1 h in Hanks solution. Next, neutrophils were activated with or without 25 μM of platelet-activating factor (PAF)±Ir-CPI (0.65 or 2 μM) in Hanks solution (3 h at 37° C.). NET formation was assessed by immunofluorescence (fluorescent microscope from Leica) after fixation of neutrophils with 4% PAF (paraformaldehyde) and fluorescent labelling of citrullinated histones (H3 antibody) and nuclei (Hoechst). Processing and analysis of images was performed using the FIJI software.
Percentage of NETosis (median) was presented for 5 independent experiments. A Wilcoxon test was used for statistical analysis (ns: not significant; *p<0.05; **p<0.01; ***p<0.001). […]

[4] = system: platelet accumulation and fibrin generation on the injured vessel walls; experiment: Laser-induced vessel wall injury of cremaster muscle arterioles: platelet and fibrin detection; assay type: in vivo, mice (C57BL/6JRj); settings: iv bolus 20.5 mg/kg + infusion 3.7 mg/kg/h
Description: Ir-CPI was administered intravenously as a bolus (20.5 mg/kg) immediately followed by a continuous infusion at a rate of 3.7 mg/kg/h (see Table 1 below). Due to fast distribution and elimination of Ir-CPI in the mice (t1/2α=14 min and t1/2β=236 min), the combination of the bolus and the infusion was chosen in order to maintain a constant Ir-CPI concentration into the blood.
Intravital video-microscopy of the cremaster muscle microcirculation was done as previously described (Falati et al., 2002).
Mice were anesthetized with intraperitoneal injection of ketamine (125 mg/kg), xylazine (12.5 mg/kg) and atropine (0.25 mg/kg) and were maintained at 37° C. on a thermo-controlled rodent blanket.
A tracheal tube was inserted into the trachea to facilitate breathing. A canula was inserted into a jugular vein for administration of pentobarbital. Pentobarbital (12 mg/kg) was administered in the jugular vein every 20-30 minutes to maintain the mice under anesthesia throughout the handling. The same jugular vein canula was used for the administration of the antibodies and the enzymatic substrate coupled to a fluorochrome that is necessary to follow the development of the thrombus (detection of fibrin and/or platelets and/or neutrophils and/or neutrophil elastase activity). A canula was also inserted in the second contralateral jugular vein for administration of the vehicle or the test item (Ir-CPI or NaCl).
After the scrotum was incised, the testicle and surrounding cremaster muscle were exteriorized onto an intravital microscopy tray. The cremaster muscle was continuously perfused with thermo-controlled (37° C.) and aerated (95% N2, 5% CO2) bicarbonate-buffered saline solution throughout the experiment.
Microvessel data were obtained using an Olympus AX61WI microscope with a 60×0.9-numerical aperture water immersion objective. The digital wide-field fluorescence microscopy system has previously been described (Falati et al., 2002). Digital images were captured with a Cooke Sensicam CCD camera in 640×480 format.
Vessel wall injury was induced with a Micropoint Laser System (Photonics Instruments) focused through the microscope objective, parfocal with the focal plane and aimed at the vessel wall, as previously described (Dubois et al., 2006). Typically, 1 or 2 pulses were required to induce vessel wall injury.
Multiple thrombi were studied in a single mouse, with new thrombi formed upstream of earlier thrombi to avoid any contribution from thrombi generated earlier in the animal under study. Laser-beam injuries were done at various time after the start of test-item administration (+5 min up to about 150 min after bolus administration of Ir-CPI or NaCl (control)).
Image analysis was performed using Slidebook 4.1 (Intelligent Imaging Innovations). Fluorescence data were captured digitally at up to 50 frames per second and analyzed as previously described (Falati et al., 2002). The kinetics of thrombus formation were analyzed by determining median fluorescence values over time in a minimum number of 20 thrombi.
In vivo detection of fibrin was performed using an Alexa Fluor 488-conjugated anti-fibrin antibody from Darbousset et al., 2014, administered intravenously at 0.5 μg/g of mouse. […]
Platelet accumulation and fibrin generation on the injured vessel walls were monitored using the following fluorescently labeled antibodies: DyLight649-labeled anti-GPIb antibody and Alexa Fluor 488-conjugated anti-fibrin antibody, respectively.

[5] = system: extrinsic or common pathway; settings: in vitro; cited from earlier work

B1: Ir-CPI: Ixodes ricinus salivary gland polypeptide, contact phase inhibitor, MW=7660 Da; sequence SEQ ID NO: 1 or SEQ ID NO: 2 (protein)
chain: ANHKGRGRPAKCKLPPDDGPCRARIPSYYFDRKTKTCKEFMYGGCEGNENNFENITTCQEECRAKKV
For B1, the FXIIa clotting activity [1] is listed as “inhibits”, the “binding to FXI zymogen” value [2] is listed as “but not to their zymogen forms; also recorded: unable to bind” and the “percentage of NET formation” value ([3]; Ir-CPI 0.65 μM, *p<0.05 vs TNFα and PAF) is listed as “significant reduction”. The “percentage of NET formation” value ([3]; Ir-CPI 2 μM, ***p<0.001 vs TNFα and PAF) was “significant reduction”, the “maximal median of integrated platelet fluorescence” value ([4]; at T214 sec after laser injury) was 121 783 AU and the “median of integrated platelet fluorescence” value ([4]; at T228 sec (end of measurement)) was 101 887 AU. For the same molecule, the “median of integrated fibrin fluorescence intensity compared to control mice” value ([4]; every time point 0, 15, 30, 45, 75 and 90 min) was “lower”, the “fibrin generation compared to control mice” value ([4]; first 3.8 min after laser injury) was “less important” and the “platelet accumulation compared to control mice” value ([4]; short time period (228 sec)) was “drastically decreased”. The “Prothrombin Time (PT)” value [5] was “no effect”, the “Thrombin Time (TT)” value [5] was “no effect” and the “dilute Russell's Viper Venom time (dRVVT)” value [5] was “no effect”.
